In the data set the test system is Escherichia coli TOP10. Put plainly: shrunken log2 fold change of peptide-encoding DNA abundance (4.5 h post-induction vs induction); higher = less antimicrobial activity (less host growth inhibition). The settings on record: time post-induction: 4.5 h; library: site-saturation at positions 5, 18, 19, 20.

Results on 125 sequences are retold here after the supplement of paper PMC9112550, “Optimization of the antimicrobial peptide Bac7 by deep mutational scanning” (BMC Biology, 2022).
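Further: peptides expressed intracellularly from a pBAD plasmid library in pooled LB shake-flask culture, induced with 0.3% L-arabinose, DNA abundance read by NGS, three biological replicates, DESeq2 with apeglm shrinkage.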

Consider RRIRGRPPRLPRPRPRPLFCPRP, for which the “shrunken log2 fold change” value is 0.367.

Take RRIRQRPPRLPRPRPRPSLNPRP: the “shrunken log2 fold change” value was -0.216. With RRIRPRPPRLPRPRPRPHEYPRP, the “shrunken log2 fold change” value is -0.25. Take RRIRKRPPRLPRPRPRPMLNPRP: the “shrunken log2 fold change” value was determined as 0.174. RRIRRRPPRLPRPRPRPGMIPRP: the “shrunken log2 fold change” value is -0.00969. On to RRIRYRPPRLPRPRPRPRQAPRP, for which the “shrunken log2 fold change” value was determined as 0.0877.

In the case of RRIRGRPPRLPRPRPRPVKWPRP, the “shrunken log2 fold change” value came out at 0.47.

For RRIRCRPPRLPRPRPRPHGYPRP, the “shrunken log2 fold change” value was -0.108. For RRIRIRPPRLPRPRPRPYKNPRP, the “shrunken log2 fold change” value is -0.814. RRIRIRPPRLPRPRPRPPMPPRP: the “shrunken log2 fold change” value is -0.0926. RRIRPRPPRLPRPRPRPIVCPRP: the “shrunken log2 fold change” value is -0.228. For RRIRHRPPRLPRPRPRPPTGPRP, the “shrunken log2 fold change” value came out at 0.03.

Turning to RRIRFRPPRLPRPRPRPYCVPRP, the “shrunken log2 fold change” value is -1.23. As for RRIRCRPPRLPRPRPRPVVHPRP, the “shrunken log2 fold change” value was -0.55.

Consider RRIRYRPPRLPRPRPRPKENPRP, for which the “shrunken log2 fold change” value is -0.0772. As for RRIRDRPPRLPRPRPRPGVEPRP, the “shrunken log2 fold change” value worked out at 0.022. Regarding RRIRARPPRLPRPRPRPIVDPRP, the “shrunken log2 fold change” value is 0.543. Consider RRIRNRPPRLPRPRPRPTQHPRP, for which the “shrunken log2 fold change” value came out at 0.0469. Then RRIRKRPPRLPRPRPRPVMNPRP, with -0.0155. As to RRIRHRPPRLPRPRPRPCNYPRP, the “shrunken log2 fold change” value was -0.084.

Turning to RRIRERPPRLPRPRPRPFCNPRP, the “shrunken log2 fold change” value was -0.366. For the sequence RRIRQRPPRLPRPRPRPWVYPRP, the “shrunken log2 fold change” value is -0.264. As for RRIRPRPPRLPRPRPRPCQLPRP, the “shrunken log2 fold change” value is -0.659. In the case of RRIRQRPPRLPRPRPRPFQCPRP, the “shrunken log2 fold change” value is -0.247.

For RRIRARPPRLPRPRPRPAMFPRP, the “shrunken log2 fold change” value was -0.0337. On to RRIRDRPPRLPRPRPRPMVEPRP, for which the “shrunken log2 fold change” value came to 0.465. The same measure for RRIRPRPPRLPRPRPRPEGEPRP: 0.302. Consider RRIRPRPPRLPRPRPRPMQIPRP, for which the “shrunken log2 fold change” value worked out at 0.114. On to RRIRQRPPRLPRPRPRPNQQPRP, for which the “shrunken log2 fold change” value is -0.0802.

As for RRIRARPPRLPRPRPRPFYWPRP, the “shrunken log2 fold change” value was -0.24. RRIRHRPPRLPRPRPRPMRWPRP: the “shrunken log2 fold change” value was 0.396.

As for RRIRQRPPRLPRPRPRPWLHPRP, the “shrunken log2 fold change” value came to 0.0098.

On to RRIRHRPPRLPRPRPRPWNYPRP, for which the “shrunken log2 fold change” value was -0.617. Then RRIRVRPPRLPRPRPRPYFEPRP, with -0.26; and RRIRVRPPRLPRPRPRPVWHPRP, with 0.119; and RRIRRRPPRLPRPRPRPQNNPRP, with 0.198. The same measure for RRIRPRPPRLPRPRPRPHPEPRP: 0.203.

Take RRIRPRPPRLPRPRPRPCCEPRP: the “shrunken log2 fold change” value is -0.116. In the case of RRIRFRPPRLPRPRPRPFCTPRP, the “shrunken log2 fold change” value is -0.19. Turning to RRIRWRPPRLPRPRPRPPQRPRP, the “shrunken log2 fold change” value is 0.548. Turning to RRIRSRPPRLPRPRPRPLNVPRP, the “shrunken log2 fold change” value is -0.0872. Take RRIRSRPPRLPRPRPRPGYWPRP: the “shrunken log2 fold change” value is -0.0968. As for RRIRIRPPRLPRPRPRPFASPRP, the “shrunken log2 fold change” value was -0.675. In the case of RRIRMRPPRLPRPRPRPLQNPRP, the “shrunken log2 fold change” value amounted to 1.2. As for RRIRNRPPRLPRPRPRPITNPRP, the “shrunken log2 fold change” value is -0.279.

On to RRIRTRPPRLPRPRPRPPASPRP, for which the “shrunken log2 fold change” value stood at 1.72. On to RRIRCRPPRLPRPRPRPFESPRP, for which the “shrunken log2 fold change” value was found to be 0.0262.

Regarding RRIRHRPPRLPRPRPRPELIPRP, the “shrunken log2 fold change” value was -0.0454.

Take RRIRMRPPRLPRPRPRPDHTPRP: the “shrunken log2 fold change” value was 0.329.

For the sequence RRIRYRPPRLPRPRPRPMLHPRP, the “shrunken log2 fold change” value was -0.404. The same measure for RRIRIRPPRLPRPRPRPTYDPRP: -1.08; for RRIRDRPPRLPRPRPRPQRWPRP: 0.287. With RRIRPRPPRLPRPRPRPGVPPRP, the “shrunken log2 fold change” value is 0.301. For the sequence RRIRFRPPRLPRPRPRPWLVPRP, the “shrunken log2 fold change” value was -0.135. With RRIRNRPPRLPRPRPRPYEHPRP, the “shrunken log2 fold change” value was -0.151.

Turning to RRIRRRPPRLPRPRPRPLDKPRP, the “shrunken log2 fold change” value is -0.152.

As to RRIRFRPPRLPRPRPRPKQGPRP, the “shrunken log2 fold change” value was -0.00975. Then RRIRRRPPRLPRPRPRPYDLPRP, with -0.546; and RRIRHRPPRLPRPRPRPILAPRP, with 0.00463; and RRIRPRPPRLPRPRPRPLFMPRP, with -0.38. As for RRIRARPPRLPRPRPRPQPYPRP, the “shrunken log2 fold change” value is -0.3. Then RRIRQRPPRLPRPRPRPQQGPRP, with -0.147; and RRIRWRPPRLPRPRPRPKWQPRP, with 0.0119. Consider RRIRSRPPRLPRPRPRPQKDPRP, for which the “shrunken log2 fold change” value is -0.323. On to RRIRPRPPRLPRPRPRPQYFPRP, for which the “shrunken log2 fold change” value was -0.0988. With RRIRGRPPRLPRPRPRPWYKPRP, the “shrunken log2 fold change” value was -0.015. As to RRIRVRPPRLPRPRPRPQQGPRP, the “shrunken log2 fold change” value was determined as 0.403.

As for RRIRFRPPRLPRPRPRPACLPRP, the “shrunken log2 fold change” value is -0.105.

Turning to RRIRARPPRLPRPRPRPMELPRP, the “shrunken log2 fold change” value amounted to 0.114. Consider RRIRMRPPRLPRPRPRPDWVPRP, for which the “shrunken log2 fold change” value came to 0.0143. As to RRIRFRPPRLPRPRPRPCCRPRP, the “shrunken log2 fold change” value is -0.332. As for RRIRIRPPRLPRPRPRPCYIPRP, the “shrunken log2 fold change” value was -0.27. On to RRIRGRPPRLPRPRPRPQYCPRP, for which the “shrunken log2 fold change” value was 0.192. Turning to RRIRNRPPRLPRPRPRPSRQPRP, the “shrunken log2 fold change” value amounted to 0.0744. The same measure for RRIRCRPPRLPRPRPRPRQYPRP: -0.15. For the sequence RRIRGRPPRLPRPRPRPTIQPRP, the “shrunken log2 fold change” value is 0.54. Consider RRIRARPPRLPRPRPRPQNWPRP, for which the “shrunken log2 fold change” value stood at 0.315. The same measure for RRIRCRPPRLPRPRPRPKVCPRP: 0.0885; for RRIRERPPRLPRPRPRPPNCPRP: -0.019; for RRIRTRPPRLPRPRPRPDGCPRP: 0.127. Regarding RRIRMRPPRLPRPRPRPCRRPRP, the “shrunken log2 fold change” value was 0.0172. Consider RRIRGRPPRLPRPRPRPVCHPRP, for which the “shrunken log2 fold change” value was 0.54. The same measure for RRIRYRPPRLPRPRPRPPLWPRP: 0.277. The same measure for RRIRFRPPRLPRPRPRPYSVPRP: 0.062. Then RRIRLRPPRLPRPRPRPVIGPRP, with -0.173. RRIRVRPPRLPRPRPRPRIPPRP: the “shrunken log2 fold change” value came out at 0.183. With RRIRARPPRLPRPRPRPMVGPRP, the “shrunken log2 fold change” value was determined as 0.548.

Consider RRIRGRPPRLPRPRPRPNENPRP, for which the “shrunken log2 fold change” value is 0.931.

For RRIRMRPPRLPRPRPRPENNPRP, the “shrunken log2 fold change” value amounted to 1.53. The same measure for RRIRYRPPRLPRPRPRPDYVPRP: -0.447; for RRIRGRPPRLPRPRPRPALKPRP: 0.504. Take RRIRYRPPRLPRPRPRPNSLPRP: the “shrunken log2 fold change” value was -1.11.

For the sequence RRIRFRPPRLPRPRPRPGNHPRP, the “shrunken log2 fold change” value was -0.0246. Consider RRIRGRPPRLPRPRPRPNYGPRP, for which the “shrunken log2 fold change” value stood at 0.07. Then RRIRERPPRLPRPRPRPVEHPRP, with -0.0102. RRIRDRPPRLPRPRPRPQCIPRP: the “shrunken log2 fold change” value is -0.0275. Regarding RRIRIRPPRLPRPRPRPEVLPRP, the “shrunken log2 fold change” value is -0.0175. Turning to RRIRFRPPRLPRPRPRPSTCPRP, the “shrunken log2 fold change” value is -0.262. The same measure for RRIRPRPPRLPRPRPRPDGYPRP: -0.246; for RRIRPRPPRLPRPRPRPMPWPRP: 0.215. With RRIRKRPPRLPRPRPRPHNYPRP, the “shrunken log2 fold change” value was -0.0761. Then RRIRPRPPRLPRPRPRPEKRPRP, with 0.0688; and RRIRDRPPRLPRPRPRPEQYPRP, with 0.215. RRIRQRPPRLPRPRPRPKRHPRP: the “shrunken log2 fold change” value was -0.0733.

As for RRIRFRPPRLPRPRPRPRASPRP, the “shrunken log2 fold change” value is 0.33. Then RRIRGRPPRLPRPRPRPRVIPRP, with 0.227; and RRIRVRPPRLPRPRPRPGIMPRP, with -0.000355.

As to RRIRARPPRLPRPRPRPLHSPRP, the “shrunken log2 fold change” value amounted to 0.0941. The same measure for RRIRPRPPRLPRPRPRPRMLPRP: 0.00647; for RRIRYRPPRLPRPRPRPQINPRP: -0.669. With RRIRFRPPRLPRPRPRPEVHPRP, the “shrunken log2 fold change” value was -0.309. In the case of RRIRARPPRLPRPRPRPRGLPRP, the “shrunken log2 fold change” value turned out to be 0.628. Turning to RRIRLRPPRLPRPRPRPLCYPRP, the “shrunken log2 fold change” value was -0.15. As for RRIRPRPPRLPRPRPRPKVCPRP, the “shrunken log2 fold change” value is 0.0118.

For RRIRLRPPRLPRPRPRPMKWPRP, the “shrunken log2 fold change” value is 0.0101. For the sequence RRIRQRPPRLPRPRPRPQYKPRP, the “shrunken log2 fold change” value was -0.314.

As for RRIRARPPRLPRPRPRPASMPRP, the “shrunken log2 fold change” value was found to be 0.301.

For RRIRKRPPRLPRPRPRPGILPRP, the “shrunken log2 fold change” value was 0.28. In the case of RRIRERPPRLPRPRPRPIWRPRP, the “shrunken log2 fold change” value is 0.0579. As for RRIRMRPPRLPRPRPRPSCRPRP, the “shrunken log2 fold change” value amounted to 0.46. The same measure for RRIRRRPPRLPRPRPRPPHNPRP: 1.21; for RRIRMRPPRLPRPRPRPNMSPRP: 0.0106. Regarding RRIRRRPPRLPRPRPRPKSKPRP, the “shrunken log2 fold change” value was determined as 0.165. On to RRIRLRPPRLPRPRPRPMTWPRP, for which the “shrunken log2 fold change” value is -0.384.

Turning to RRIRLRPPRLPRPRPRPNPFPRP, the “shrunken log2 fold change” value is -0.334.
